No end group written: not given here. fluorescein = N-terminal fluorescein probe
T1: C3G (full-length, residues 4-1077) (human, UniProt Q13905-1 4-1077)
T1 construct: also called C3G WT; RapGEF1; source: E. coli BL21 (DE3), purified (IMAC, TEV digestion, reversed IMAC, SEC); not shown: His, N-terminal, cleaved; Halo, N-terminal, cleaved
T1 sequence (looked up): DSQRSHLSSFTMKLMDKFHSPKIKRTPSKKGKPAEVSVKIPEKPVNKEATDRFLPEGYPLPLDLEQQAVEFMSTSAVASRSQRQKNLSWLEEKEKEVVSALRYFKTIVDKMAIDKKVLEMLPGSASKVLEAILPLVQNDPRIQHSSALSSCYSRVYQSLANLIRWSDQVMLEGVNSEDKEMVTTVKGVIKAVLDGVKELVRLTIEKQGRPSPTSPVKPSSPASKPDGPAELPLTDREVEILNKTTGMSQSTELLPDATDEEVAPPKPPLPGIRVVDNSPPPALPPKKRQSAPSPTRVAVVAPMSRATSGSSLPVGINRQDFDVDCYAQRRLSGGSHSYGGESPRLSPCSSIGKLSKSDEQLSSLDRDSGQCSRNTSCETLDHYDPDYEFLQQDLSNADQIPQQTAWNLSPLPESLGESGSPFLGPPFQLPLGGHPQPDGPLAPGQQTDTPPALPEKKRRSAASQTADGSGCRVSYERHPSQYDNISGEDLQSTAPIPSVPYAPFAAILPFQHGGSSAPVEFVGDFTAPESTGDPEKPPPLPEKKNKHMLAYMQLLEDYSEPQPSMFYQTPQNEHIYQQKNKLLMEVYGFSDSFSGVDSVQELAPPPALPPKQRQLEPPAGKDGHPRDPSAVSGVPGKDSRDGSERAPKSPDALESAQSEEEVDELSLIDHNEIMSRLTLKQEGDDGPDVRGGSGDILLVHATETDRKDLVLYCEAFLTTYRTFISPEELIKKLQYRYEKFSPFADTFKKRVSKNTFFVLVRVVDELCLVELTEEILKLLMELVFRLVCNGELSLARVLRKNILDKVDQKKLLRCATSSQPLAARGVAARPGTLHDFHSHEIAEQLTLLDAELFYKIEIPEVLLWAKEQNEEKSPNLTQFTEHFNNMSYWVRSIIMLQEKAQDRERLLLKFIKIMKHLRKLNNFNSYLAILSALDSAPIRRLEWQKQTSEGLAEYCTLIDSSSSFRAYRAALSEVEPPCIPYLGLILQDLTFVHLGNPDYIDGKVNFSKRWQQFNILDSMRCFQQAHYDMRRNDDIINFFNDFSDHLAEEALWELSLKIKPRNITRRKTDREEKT

T2: C3G full-length wild type (human, isoform a, residues 4-1077) (human, UniProt Q13905-1 4-1077)
T2 sequence (looked up): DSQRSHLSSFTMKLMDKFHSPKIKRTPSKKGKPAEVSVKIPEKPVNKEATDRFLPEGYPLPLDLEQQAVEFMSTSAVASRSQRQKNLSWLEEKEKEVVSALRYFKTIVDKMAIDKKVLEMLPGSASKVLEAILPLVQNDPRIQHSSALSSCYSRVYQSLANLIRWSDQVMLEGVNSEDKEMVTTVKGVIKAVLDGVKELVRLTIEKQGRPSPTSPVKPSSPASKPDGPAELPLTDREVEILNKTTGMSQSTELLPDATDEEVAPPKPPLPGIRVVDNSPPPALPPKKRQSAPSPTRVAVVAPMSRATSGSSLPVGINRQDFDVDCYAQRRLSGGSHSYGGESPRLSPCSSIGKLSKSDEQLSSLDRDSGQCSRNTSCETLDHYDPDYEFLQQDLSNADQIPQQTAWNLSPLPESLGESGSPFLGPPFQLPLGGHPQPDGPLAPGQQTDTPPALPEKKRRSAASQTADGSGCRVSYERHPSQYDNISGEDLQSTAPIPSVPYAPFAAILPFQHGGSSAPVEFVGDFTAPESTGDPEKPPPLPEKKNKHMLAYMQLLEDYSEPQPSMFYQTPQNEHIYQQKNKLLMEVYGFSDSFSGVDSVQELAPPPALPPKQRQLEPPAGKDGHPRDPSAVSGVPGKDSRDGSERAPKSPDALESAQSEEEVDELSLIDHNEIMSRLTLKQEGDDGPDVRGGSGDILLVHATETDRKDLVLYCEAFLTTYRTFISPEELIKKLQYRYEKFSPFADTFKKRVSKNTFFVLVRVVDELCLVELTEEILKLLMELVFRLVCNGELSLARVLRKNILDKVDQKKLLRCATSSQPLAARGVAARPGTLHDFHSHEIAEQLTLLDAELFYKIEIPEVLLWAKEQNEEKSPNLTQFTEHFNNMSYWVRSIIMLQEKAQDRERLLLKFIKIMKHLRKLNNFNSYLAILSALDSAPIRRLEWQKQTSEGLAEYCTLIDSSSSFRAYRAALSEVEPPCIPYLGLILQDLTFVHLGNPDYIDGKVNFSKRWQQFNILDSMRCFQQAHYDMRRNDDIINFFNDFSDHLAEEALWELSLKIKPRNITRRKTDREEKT

T3: Src-phosphorylated C3G (pC3G), wild type (human, UniProt Q13905-1 4-1077, phosphotyrosines (phosphorylated in vitro by Src; sites not stated))
T3 sequence (looked up): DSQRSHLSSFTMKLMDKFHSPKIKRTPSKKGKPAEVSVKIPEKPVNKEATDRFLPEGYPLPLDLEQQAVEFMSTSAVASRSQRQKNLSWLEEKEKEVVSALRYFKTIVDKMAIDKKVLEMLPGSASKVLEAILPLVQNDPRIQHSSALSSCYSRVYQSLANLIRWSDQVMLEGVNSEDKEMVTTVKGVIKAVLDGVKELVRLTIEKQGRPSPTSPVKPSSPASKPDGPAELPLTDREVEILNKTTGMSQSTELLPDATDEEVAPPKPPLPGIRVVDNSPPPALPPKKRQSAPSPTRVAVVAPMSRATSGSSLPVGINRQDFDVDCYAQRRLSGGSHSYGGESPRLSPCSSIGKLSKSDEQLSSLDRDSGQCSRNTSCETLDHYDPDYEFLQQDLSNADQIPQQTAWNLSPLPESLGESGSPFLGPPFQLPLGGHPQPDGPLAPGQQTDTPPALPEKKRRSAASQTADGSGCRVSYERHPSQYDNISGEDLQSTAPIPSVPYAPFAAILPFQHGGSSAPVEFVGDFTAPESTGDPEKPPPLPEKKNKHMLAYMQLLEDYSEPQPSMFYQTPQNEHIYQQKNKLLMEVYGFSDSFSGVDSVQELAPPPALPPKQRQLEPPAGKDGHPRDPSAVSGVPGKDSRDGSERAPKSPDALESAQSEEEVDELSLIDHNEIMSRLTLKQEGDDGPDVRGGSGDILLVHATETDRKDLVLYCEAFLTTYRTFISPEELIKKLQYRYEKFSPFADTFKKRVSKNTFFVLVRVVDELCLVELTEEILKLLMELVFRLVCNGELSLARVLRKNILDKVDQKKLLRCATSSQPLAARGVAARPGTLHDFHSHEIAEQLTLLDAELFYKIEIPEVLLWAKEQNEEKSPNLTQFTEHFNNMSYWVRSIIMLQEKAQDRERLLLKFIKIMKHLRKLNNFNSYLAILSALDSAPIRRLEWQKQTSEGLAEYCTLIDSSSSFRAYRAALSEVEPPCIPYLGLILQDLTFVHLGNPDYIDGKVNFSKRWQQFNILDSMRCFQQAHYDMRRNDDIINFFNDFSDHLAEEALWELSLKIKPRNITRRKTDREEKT


Assays:
[1] = molecular target: T1, C3G (full-length, residues 4-1077); assay: ITC; C3G or pC3G in the cell titrated with the Crk protein, 25 °C, 300 mM NaCl, pH 7.5; global fit of three titrations with SEDPHAT, three symmetric binding sites, microscopic kd; conditions: both partners purified
[2] = molecular target: T2, C3G full-length wild type (human, …); assay: cell-based or functional assay
[3] = molecular target: T3, Src-phosphorylated C3G (pC3G), wild type; assay: cell-based or functional assay
[4] = molecular target: T4, CrkL (full-length) (human, UniProt P46109 1-303); assay: fluorescence polarisation; fluorescein-labelled peptide at 0.2 µM titrated with CrkL or CrkL W160S; 20 mM Tris-HCl, 150 mM NaCl, pH 7.5, 0.1 mg/ml BSA; 1:1 binding model; apparent kd; conditions: both partners purified
T4 construct: human CrkL, residues 1-303, in pETEV15b; also called Crk-like protein; source: E. coli BL21 (DE3), purified (IMAC, TEV digestion, SEC); not shown: His, N-terminal, cleaved
T4 sequence (P46109 whole entry, the tested form may be a part): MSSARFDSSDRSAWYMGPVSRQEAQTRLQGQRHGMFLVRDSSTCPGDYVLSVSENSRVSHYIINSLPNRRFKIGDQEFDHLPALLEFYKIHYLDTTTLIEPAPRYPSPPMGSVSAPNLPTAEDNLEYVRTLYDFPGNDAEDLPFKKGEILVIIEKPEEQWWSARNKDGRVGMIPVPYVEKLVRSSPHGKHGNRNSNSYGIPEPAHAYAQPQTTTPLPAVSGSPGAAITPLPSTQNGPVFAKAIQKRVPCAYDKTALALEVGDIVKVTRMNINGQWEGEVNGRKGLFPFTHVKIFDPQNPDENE

[5] = molecular target: T5, CrkL-W160S (human, UniProt P46109 1-303, W160S); assay: as above; conditions: both partners purified
T5 construct: human CrkL, residues 1-303, point mutant W160S, in pETEV15b; source: E. coli BL21 (DE3), purified (IMAC, TEV digestion, SEC); not shown: His, N-terminal, cleaved
T5 sequence (P46109 whole entry W160S, the tested form may be a part): as the sequence (P46109 whole entry, the tested form may be a part) above, with W160S counted along it

Binder	Kd [4] [µM]	Kd [5] [µM]	other results
CrkL-SH2-SH3N (domain or fragment, human, UniProt P46109 1-182, looked up, human CrkL, SH2-SH3N, residues 1-182, in pETEV15b; also called CrkL-SH2N-SH3N; source: E. coli BL21 (DE3), purified (IMAC, TEV digestion, SEC); not shown: His, N-terminal, cleaved) MSSARFDSSDRSAWYMGPVSRQEAQTRLQGQRHGMFLVRDSSTCPGDYVLSVSENSRVSHYIINSLPNRRFKIGDQEFDHLPALLEFYKIHYLDTTTLIEPAPRYPSPPMGSVSAPNLPTAEDNLEYVRTLYDFPGNDAEDLPFKKGEILVIIEKPEEQWWSARNKDGRVGMIPVPYVEKLV			Kd [1]: 2.2 µM
CrkL-SH2-SH3N (residues 1-182) (domain or fragment, human, UniProt P46109 1-182, looked up) MSSARFDSSDRSAWYMGPVSRQEAQTRLQGQRHGMFLVRDSSTCPGDYVLSVSENSRVSHYIINSLPNRRFKIGDQEFDHLPALLEFYKIHYLDTTTLIEPAPRYPSPPMGSVSAPNLPTAEDNLEYVRTLYDFPGNDAEDLPFKKGEILVIIEKPEEQWWSARNKDGRVGMIPVPYVEKLV			AC50 of the dose-response activation of the GEF activity of C3G (1 µM) on Rap1b:mant-dGDP [2]: 15.8 µM; kmax of the dose-response activation of the GEF activity of C3G (1 µM) on Rap1b:mant-dGDP [2]: 8400 M⁻¹ s⁻¹; AC50 of the dose-response activation of the GEF activity of pC3G (0.2 µM) on Rap1b:mant-dGDP [3]: 4.9 µM; kmax of the dose-response activation of the GEF activity of pC3G (0.2 µM) on Rap1b:mant-dGDP [3]: 0.0377 s^-1 µM^-1
fluorescein-NGPPPALPPKKRQS (P1 Pro-rich motif of human C3G, residues 280-293; also called P1 peptide of C3G; source: synthetic peptide (custom synthesized, Thermo Scientific)) [P1 (Fluo-280-293)]	1.4	~490	
fluorescein-PEKPPPLPEKKNKH (P3 Pro-rich motif of human C3G, residues 537-550; also called P3 peptide of C3G; source: synthetic peptide (custom synthesized, Thermo Scientific)) [P3 (Fluo-537-550)]	2.2	~425	
fluorescein-LAPPPALPPKQRQL (P4 Pro-rich motif of human C3G, residues 605-618; also called P4 peptide of C3G; source: synthetic peptide (custom synthesized, Thermo Scientific)) [P4 (Fluo-605-618)]	3	~415	
fluorescein-TDTPPALPEKKRRS (P2 Pro-rich motif of human C3G, residues 450-463; also called P2 peptide of C3G; source: synthetic peptide (custom synthesized, Thermo Scientific)) [P2 (Fluo-450-463)]	2.2	> 4000	

Reference: PMC9896810, “Crk proteins activate the Rap1 guanine nucleotide exchange factor C3G by segregated adaptor-dependent and -independent mechanisms” (Cell Communication and Signaling : CCS, 2023)
